Sequences and labels used below:
B1: TPR 5TU (parent)
chain: GGAUCUUCUCGAUCUAACAAAAAAGACAAAUCUGCCACAAAGCUUGAGAGCAUCUUCGGAUGCAGAGGCGGCAGCCUUCGGUGGCGCGAUAGCGCCAACGUUCUCAACUAUGACACGCAAAACGCGUGCUCCGUUGAAUGGAGUUUAUCAUG

84 variants from the RNAGym collection of RNA variant scans (doi:10.1073/pnas.2313332121) can be followed below.

This sample holds only a part of the variants without activity.

Variants of B1 are the subject of the data set. Nature of the data set: polymerase ribozyme fitness, log enrichment relative to wild type (log ratio); higher = more active; in vitro selection for triplet polymerase activity. The gist of the method:
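For each subunit of a heterodimeric triplet polymerase ribozyme, a mutant library was built by PCR and transcribed, then taken through a single in vitro selection round in triplicate. Selection involved annealing to a biotinylated primer, the partner subunit and triplets, incubation frozen at −7 °C, gel excision of extended constructs, capture on streptavidin beads and RT-PCR. Genotypes were retained after Illumina sequencing of inputs and outputs only with ≥10 input reads and ≥1 read in each output. Fitness is defined as the logarithm of a genotype's enrichment relative to wild-type enrichment, using inverse-variance-weighted averages across replicates, with the logarithm taken to base 2.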
For G86U A119G, the “polymerase ribozyme fitness (log ratio)” value was -1.54. The figure for U7G A12G C18G C32U G94C A115U is ≤ -4.2. As for A3U C36A G42C C87A A89G G100C, the figure is ≤ -4.2. The figure for A3C A49C C96A is ≤ -4.2; for A19C G48C C51A G86U G128U it is ≤ -4.2. Take A20C G81C C87U: the “polymerase ribozyme fitness (log ratio)” value is -1.28. As for C27A A28U C38U A39U A47U, the figure is ≤ -4.2; as for C10G A29U C95U C108A G117A G143C, ≤ -4.2.

Take C10G C36U U55A C95U G133U: the “polymerase ribozyme fitness (log ratio)” value is ≤ -4.2. Take G50C C103A C149U: the “polymerase ribozyme fitness (log ratio)” value is ≤ -4.2.

As for C57G A91G G100A C123A C131A, the “polymerase ribozyme fitness (log ratio)” value is ≤ -4.2. The figure for C118G G141A is -0.0985; for A40U G50U G80A G126A C132G it is ≤ -4.2.

For C75G G81A G92U C125G, the “polymerase ribozyme fitness (log ratio)” value is ≤ -4.2. As for A40G A52G A91C A119U G128A, the figure is ≤ -4.2; as for C5G A37U G141U, -1.94; as for A41C U45A G68A C85A C118G C129U U144C U146A, ≤ -4.2. As for A22C C75G G88U A91G A110G C116A G136A, the figure is ≤ -4.2; as for A16C A17C A20U A30U A37C U55G C93G C103A A119G, ≤ -4.2. The figure for G59A G88U C116G is -3.56; for A17C A91U it is ≤ -4.2. Take G48U C93G: the “polymerase ribozyme fitness (log ratio)” value is -3.47. As for C116U A122U, the figure is -0.326; as for G25U G59A G62C C116U U145A, -1.79. The figure for G92C U134G is -1.68. The figure for G25U U55A C85A G140C is ≤ -4.2; for A3U U4G U55A A119C it is -1.29; for A39G C105G it is -3.19.

For the variant C54G C87U, the “polymerase ribozyme fitness (log ratio)” value is -3.59. The figure for C8U A24C C36U G48A C95G C105U U145A is ≤ -4.2; for A19C A150U it is 2.88; for C57A A60G U101A U109A A113U it is -3.65.

As to A47C G62U C99G G143U, the “polymerase ribozyme fitness (log ratio)” value was ≤ -4.2.

Regarding C96U A121G, the “polymerase ribozyme fitness (log ratio)” value worked out at 0.324. As for A52G C114A, the figure is -3.48; as for U55A G70A C123G, -3.3; as for A91C G112C U146A, ≤ -4.2. The figure for A40U A60C is -1.31. The figure for A24G A39G G67U G83A C85A U104G C105U G136A is ≤ -4.2; for U61A C85U A97C A120G it is -3.26; for A3G U13C A98U A107U it is -4. Consider C54A C76G A89U G92U U130G C149A U151A, for which the “polymerase ribozyme fitness (log ratio)” value was ≤ -4.2. For the variant C93U A107U, the “polymerase ribozyme fitness (log ratio)” value was -4.04. The figure for C32G C85G is ≤ -4.2; for U44A G46C C75G U102A A120U U130G it is -3.99. The figure for C54A G88C is -3.99; for C54U G92C it is -1.07; for G94U G141C it is -1.45. The figure for A17G C18G A40C C85G A106U G124U C125U is ≤ -4.2.

With U31C A121C U134A, the “polymerase ribozyme fitness (log ratio)” value is -1.76. The figure for A47G G50U G94U G141C is -2.22; for A49G G92C A115U it is -3.24; for U55G G59C G94C U102A U127A U135C it is ≤ -4.2. The figure for C51U G81C C85U G117C U134A A137G is -3.98. As for U13G C54G, the figure is -3.62.

For G62U A115C, the “polymerase ribozyme fitness (log ratio)” value is -1.97.

Take G94A C116G C123G: the “polymerase ribozyme fitness (log ratio)” value stood at 0.258.

On to A64U G92A C95A U101C C105U C123A G124C U145G U148G, for which the “polymerase ribozyme fitness (log ratio)” value was ≤ -4.2.

As to U45A C96A, the “polymerase ribozyme fitness (log ratio)” value is -2.56. The figure for C43A C57U C76G C85A G86A G140A is ≤ -4.2. The figure for G11A A23U A39U U53G C54U C93U A122U A142G is ≤ -4.2; for U13A G46U G59A A91G C95U G117A it is ≤ -4.2; for C105G A138G it is -3.88. As for A19G U53G A120U, the figure is -2.57; as for C5A G92A, -1.42; as for A39C C51U C105U C118U, -3.78. In the case of U45C G80C C85U C87G G92A U144G, the “polymerase ribozyme fitness (log ratio)” value is ≤ -4.2.

In the case of A20U C54G C87U A115G C149U, the “polymerase ribozyme fitness (log ratio)” value was ≤ -4.2. Consider C14G A28G U31A C32U G34A G42C U55G G94U, for which the “polymerase ribozyme fitness (log ratio)” value is ≤ -4.2. As for C93U A97U, the figure is -2.14; as for U15A A73C G94A, -3.39. As for C8G U61G G81A C87U G92C A121G C132A U144A G152A, the figure is ≤ -4.2; as for A115G, -1; as for A26C G83C, -2.82. The figure for C69A G143U is -3.34; for G58U G141C it is 0.501; for U53A C125U it is -1.28.

Turning to A20C A98U, the “polymerase ribozyme fitness (log ratio)” value is -1.29. The figure for C5U C54G is -0.591; for G86A G143C it is -2.14. As to A22G U31G C54U C96G A115G C123G A137C, the “polymerase ribozyme fitness (log ratio)” value is ≤ -4.2. In the case of G50C G94A A107G U134C, the “polymerase ribozyme fitness (log ratio)” value is ≤ -4.2. The figure for A19U U55G C85G C96U C116A U139A is ≤ -4.2; for A26U G86A it is -2.74.
